From patent US20210198369A1 (DRAGONFLY THERAPEUTICS, published 2021)
Where “and” joins values, the source holds several entries; their conditions need not be identical. Equal entries are not always repeated.

T1: fusion protein of human NKG2D and murine Fc (human, UniProt P26718 78-216)
T1 construct: also called mFc-hNKG2D; not shown: murine Fc
T1 sequence (looked up): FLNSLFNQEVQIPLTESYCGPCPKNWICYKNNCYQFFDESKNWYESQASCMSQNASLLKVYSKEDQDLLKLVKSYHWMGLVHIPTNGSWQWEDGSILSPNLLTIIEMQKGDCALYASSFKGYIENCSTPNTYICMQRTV


Columns and labels:
[1] = target: T2, HER2 (ErbB2) expressed on human cells (SkBr-3, NCI-H661, 786-O cancer cells; human cardiomyocytes) (human, UniProt P04626 23-1255); assay: cell-based or functional assay
[2] = target: T1, fusion protein of human NKG2D and …; assay: SPR at 37 C, steady state affinity fit, average of two independent experiments
Source text: (§1) Steady state affinity fit was utilized to obtain the equilibrium affinity data.

[3] = target: T1, fusion protein of human NKG2D and …; assay: SPR at 37 C, mFc-hNKG2D captured, TriNKET as analyte, steady state affinity fit
Source text: as §1

[4] = target: T1, fusion protein of human NKG2D and …; assay: SPR at 37 C, mFc-hNKG2D captured, TriNKET as analyte, steady state affinity fit; reference TriNKET A
Source text: as §1

[5] = target: T1, fusion protein of human NKG2D and …; assay: SPR at 37 C, steady state affinity fit, average of three independent experiments
Source text: as §1

[6] = target: T2, HER2 (ErbB2) expressed on human cells …; assay: flow cytometry on SkBr-3 cells, anti-human IgG secondary, % of maximum MFI
Method: (§2) All three cell lines were used to assess their binding affinity to TriNKET. TriNKETs were diluted in a series of concentrations, and were incubated with the respective cells.

[7] = target: T2, HER2 (ErbB2) expressed on human cells …; assay: flow cytometry on H661 cells, anti-human IgG secondary, fold over background (control TriNKET)
Method: (§3) TriNKETs were diluted to 3.8e-4 to 100 μg/mL, and the dilutions were used as primary antibody stain. Binding of the TriNKET was detected using a fluorophore-conjugated anti-human IgG secondary antibody. Cells were analyzed by flow cytometry. Binding fluorescence intensity (MFI) to cells expressing HER2 was normalized to cells stained with a control (non-specific) TriNKET to obtain fold over background (FOB) values.

[8] = target: T2, HER2 (ErbB2) expressed on human cells …; assay: flow cytometry on SKBR3 cells, anti-human IgG secondary, fold over background (control TriNKET)
Method: as §3

[9] = target: T2, HER2 (ErbB2) expressed on human cells …; assay: flow cytometry on SkBr-3 cells, anti-human IgG secondary, fold over background (secondary only)
Method: as §2

[10] = target: T2, HER2 (ErbB2) expressed on human cells …; assay: flow cytometry on human cardiomyocytes, anti-human IgG secondary, fold over background (control TriNKET)
Method: as §3

EC50 (nM), % specific lysis of SKBR-3 target cells by KHYG-1-CD16V cells (DELFIA) [1]	Kd [2]	Kd [3]	fold reduced affinity compared to TriNKET A [4]	Kd [5]	EC50 (read off the curve) [6]	EC50 (read off the curve) [7]	EC50 (read off the curve) [8]	EC50 (read off the curve) [9]	EC50 (read off the curve) [10]	Binder
0.65 nM	481 nM	509 nM and 454 nM	< 2 fold							TriNKET A* (mutant form of TriNKET A having a substitution of Ile for the Met at position 102) (bispecific antibody, human IgG1, also called M102 variant) heavy: EVQLVESGGGLVKPGGSLRLSCAASGFTFSSYSMNWVRQAPGKGLEWVSSISSSSSYIYYADSVKGRFTISRDNAKNSLYLQMNSLRAEDTAVYYCARGAPIGAAAGWFDPWGQGTLVTVSSASTKGPSVFPLAPSSKSTSGGTAALGCLVKDYFPEPVTVSWNSGALTSGVHTFPAVLQSSGLYSLSSVVTVPSSSLGTQTYICNVNHKPSNTKVDKKVEPKSCDKTHTCPPCPAPELLGGPSVFLFPPKPKDTLMISRTPEVTCVVVDVSHEDPEVKFNWYVDGVEVHNAKTKPREEQYNSTYRVVSVLTVLHQDWLNGKEYKCKVSNKALPAPIEKTISKAKGQPREPQVCTLPPSRDELTENQVSLTCLVKGFYPSDIAVEWESNGQPENNYKTTPPVLDSDGSFFLYSWLTVDKSRWQQGNVFSCSVMHEALHNHYTQKSLSLSPG scFv: not shown light: DIQMTQSPSSVSASVGDRVTITCRASQGISSWLAWYQQKPGKAPKLLIYAASSLQSGVPSRFSGSGSGTDFTLTISSLQPEDFATYYCQQGVSFPRTFGGGTKVEIKRTVAAPSPPSDEQLKSGTASVVCLLNNFYPREAKVQWKVDNALQSGNSQESVTEQDSKDSTYSLSSTLTLSKADYEKHKVYACEVTHQGLSSPVTKSFNRGEC
0.39 nM		370 nM and 328 nM and 313 nM		337 nM	~10 nM	~0.3 µg/mL	~0.3 µg/mL	~10 nM	~0.4 µg/mL	A49-F3'-TriNKET-Trastuzumab (bispecific antibody, human IgG1, also called TriNKET A; HER2-F3'-TriNKET-A49) heavy: EVQLVESGGGLVKPGGSLRLSCAASGFTFSSYSMNWVRQAPGKGLEWVSSISSSSSYIYYADSVKGRFTISRDNAKNSLYLQMNSLRAEDTAVYYCARGAPMGAAAGWFDPWGQGTLVTVSSASTKGPSVFPLAPSSKSTSGGTAALGCLVKDYFPEPVTVSWNSGALTSGVHTFPAVLQSSGLYSLSSVVTVPSSSLGTQTYICNVNHKPSNTKVDKKVEPKSCDKTHTCPPCPAPELLGGPSVFLFPPKPKDTLMISRTPEVTCVVVDVSHEDPEVKFNWYVDGVEVHNAKTKPREEQYNSTYRVVSVLTVLHQDWLNGKEYKCKVSNKALPAPIEKTISKAKGQPREPQVCTLPPSRDELTENQVSLTCLVKGFYPSDIAVEWESNGQPENNYKTTPPVLDSDGSFFLYSWLTVDKSRWQQGNVFSCSVMHEALHNHYTQKSLSLSPG scFv: not shown light: DIQMTQSPSSVSASVGDRVTITCRASQGISSWLAWYQQKPGKAPKLLIYAASSLQSGVPSRFSGSGSGTDFTLTISSLQPEDFATYYCQQGVSFPRTFGGGTKVEIKRTVAAPSPPSDEQLKSGTASVVCLLNNFYPREAKVQWKVDNALQSGNSQESVTEQDSKDSTYSLSSTLTLSKADYEKHKVYACEVTHQGLSSPVTKSFNRGEC
